B1: Anthrax toxin receptor 1 (Homo sapiens), Q9H6X2-2 (parent)
chain: MATAERRALGIGFQWLSLATLVLICAGQGGRREDGGPACYGGFDLYFILDKSGSVLHHWNEIYYFVEQLAHKFISPQLRMSFIVFSTRGTTLMKLTEDREQIRQGLEELQKVLPGGDTYMHEGFERASEQIYYENRQGYRTASVIIALTDGELHEDLFFYSEREANRSRDLGAIVYCVGVKDFNETQLARIADSKDHVFPVNDGFQALQGIIHSILKKSCIEILAAEPSTICAGESFQVVVRGNGFRHARNVDRVLCSFKINDSVTLNEKPFSVEDTYLLCPAPILKEVGMKAALQVSMNDGLSFISSSVIITTTHCSDGSILAIALLILFLLLALALLWWFWPLCCTVIIKEVPPPPAEESEENKIK

Variants of: B1
Conditions: with pag_bacan pagA

Variant	effect of a mutation on the interaction
MATAERRALGIGFQWLSLATLVLICAGQGGRREDGGPACYGGFDLYFILAKSGSVLHHWNEIYYFVEQLAHKFISPQLRMSFIVFSTRGTTLMKLTEDREQIRQGLEELQKVLPGGDTYMHEGFERASEQIYYENRQGYRTASVIIALTDGELHEDLFFYSEREANRSRDLGAIVYCVGVKDFNETQLARIADSKDHVFPVNDGFQALQGIIHSILKKSCIEILAAEPSTICAGESFQVVVRGNGFRHARNVDRVLCSFKINDSVTLNEKPFSVEDTYLLCPAPILKEVGMKAALQVSMNDGLSFISSSVIITTTHCSDGSILAIALLILFLLLALALLWWFWPLCCTVIIKEVPPPPAEESEENKIK [D50A]	decreasing interaction
MATAERRALGIGFQWLSLATLVLICAGQGGRREDGGPACYGGFDLYFILDKSGSVLHHWNEIYYFVEQLAHKFISPQLRMSFIVFSTRGTTLMKLTEDREQIRQGLEELQKVLPGGDAYMHEGFERASEQIYYENRQGYRTASVIIALTDGELHEDLFFYSEREANRSRDLGAIVYCVGVKDFNETQLARIADSKDHVFPVNDGFQALQGIIHSILKKSCIEILAAEPSTICAGESFQVVVRGNGFRHARNVDRVLCSFKINDSVTLNEKPFSVEDTYLLCPAPILKEVGMKAALQVSMNDGLSFISSSVIITTTHCSDGSILAIALLILFLLLALALLWWFWPLCCTVIIKEVPPPPAEESEENKIK [T118A]	decreasing interaction

Source: IntAct's records for PubMed 14507921
